Legend:
[1] = target: monkey DLL3 on CHO-K1-cyno DLL3 cells (cynomolgus monkey); assay: FACS, CHO-K1-cyno DLL3 cells, 0.00128 nM antibody
[2] = target: human DLL3 protein expressed on CHO-K1 recombinant cells (human DLL3 extracellular segment fused to EpCAM transmembrane and intracellular regions) (human) (UniProt Q9NYJ7); assay: FACS, CHO-K1 hDLL3 cells, 0.032 nM antibody
[3] = target: DLL3 endogenously expressed on NCI-H82 cells (UniProt Q9NYJ7); assay: FACS on NCI-H82 cells; antibody 0.16 nM
[4] = target: monkey DLL3 on CHO-K1-cyno DLL3 cells (cynomolgus monkey); assay: FACS, CHO-K1-cyno DLL3 cells, 0.8 nM antibody
[5] = target: human DLL3 protein expressed on CHO-K1 recombinant cells (human DLL3 extracellular segment fused to EpCAM transmembrane and intracellular regions) (human) (UniProt Q9NYJ7); assay: FACS, CHO-K1 hDLL3 cells, 100 nM antibody
[6] = target: monkey DLL3 on CHO-K1-cyno DLL3 cells (cynomolgus monkey); assay: FACS, CHO-K1-cyno DLL3 cells, 100 nM antibody
[7] = target: mouse DLL3 on CHO-K1-mDLL3 cells (mouse) (UniProt O88516); assay: FACS, CHO-K1-mDLL3 cells, 4 nM antibody
Sequence of mouse DLL3 on CHO-K1-mDLL3 cells (mouse) (O88516 other isoform, or with tags, fused parts or gaps limits assumed): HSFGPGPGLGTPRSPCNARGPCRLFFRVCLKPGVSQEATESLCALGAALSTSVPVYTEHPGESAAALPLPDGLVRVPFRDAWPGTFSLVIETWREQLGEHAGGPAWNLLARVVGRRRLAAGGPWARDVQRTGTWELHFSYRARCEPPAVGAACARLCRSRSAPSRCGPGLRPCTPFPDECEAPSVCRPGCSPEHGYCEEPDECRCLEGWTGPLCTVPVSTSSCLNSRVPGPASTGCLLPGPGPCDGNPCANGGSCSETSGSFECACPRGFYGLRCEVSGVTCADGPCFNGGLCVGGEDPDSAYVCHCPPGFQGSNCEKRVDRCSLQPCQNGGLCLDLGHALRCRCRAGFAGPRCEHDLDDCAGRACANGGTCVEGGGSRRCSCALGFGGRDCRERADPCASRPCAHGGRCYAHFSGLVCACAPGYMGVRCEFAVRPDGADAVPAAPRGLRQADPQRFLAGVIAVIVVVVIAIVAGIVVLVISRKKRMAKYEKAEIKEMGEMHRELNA

[8] = target: monkey DLL3 on CHO-K1-cyno DLL3 cells (cynomolgus monkey); assay: FACS, CHO-K1-cyno DLL3 cells, 0.16 nM antibody
[9] = target: mouse DLL3 on CHO-K1-mDLL3 cells (mouse) (UniProt O88516); assay: FACS, CHO-K1-mDLL3 cells, 0.00128 nM antibody
[10] = target: monkey DLL3 on CHO-K1-cyno DLL3 cells (cynomolgus monkey); assay: FACS, CHO-K1-cyno DLL3 cells, 0.032 nM antibody
[11] = target: human DLL3 protein expressed on CHO-K1 recombinant cells (human DLL3 extracellular segment fused to EpCAM transmembrane and intracellular regions) (human) (UniProt Q9NYJ7); assay: FACS, CHO-K1 hDLL3 cells, 0.8 nM antibody
[12] = target: human DLL4 protein (Acro, Cat. No. DL4-H5227) (human) (UniProt Q9NR61); assay: ELISA, coated hDLL4; maximum over 0.1, 1, 10, 100 nM antibody
Sequence of human DLL4 protein (Acro, Cat. No. DL4-H5227) (human) (Q9NR61 27-524 limits assumed): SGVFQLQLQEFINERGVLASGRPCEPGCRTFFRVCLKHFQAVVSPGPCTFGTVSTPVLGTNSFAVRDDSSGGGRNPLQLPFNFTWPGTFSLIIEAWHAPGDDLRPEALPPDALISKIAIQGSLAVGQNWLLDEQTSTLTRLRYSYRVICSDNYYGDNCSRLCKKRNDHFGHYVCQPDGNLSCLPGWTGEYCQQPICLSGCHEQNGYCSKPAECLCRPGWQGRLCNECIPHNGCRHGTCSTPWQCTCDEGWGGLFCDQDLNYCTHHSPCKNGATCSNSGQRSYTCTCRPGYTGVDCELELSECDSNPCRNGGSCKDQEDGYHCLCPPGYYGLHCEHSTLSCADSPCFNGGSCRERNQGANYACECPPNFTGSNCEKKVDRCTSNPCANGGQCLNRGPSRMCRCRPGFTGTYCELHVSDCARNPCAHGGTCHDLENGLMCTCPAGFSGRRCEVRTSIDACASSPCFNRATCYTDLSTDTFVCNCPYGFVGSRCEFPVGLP

[13] = target: mouse DLL3 on CHO-K1-mDLL3 cells (mouse) (UniProt O88516); assay: FACS, CHO-K1-mDLL3 cells, 0.032 nM antibody
[14] = target: human DLL3 protein expressed on CHO-K1 recombinant cells (human DLL3 extracellular segment fused to EpCAM transmembrane and intracellular regions) (human) (UniProt Q9NYJ7); assay: FACS, CHO-K1 hDLL3 cells, 20 nM antibody
[15] = target: DLL3 endogenously expressed on NCI-H82 cells (UniProt Q9NYJ7); assay: FACS on NCI-H82 cells; antibody 100 nM
[16] = target: mouse DLL3 on CHO-K1-mDLL3 cells (mouse) (UniProt O88516); assay: FACS, CHO-K1-mDLL3 cells, 100 nM antibody
[17] = target: human delta-like ligand 3 (DLL3) on SHP77 cells (human) (UniProt Q9NYJ7); assay: FACS on SHP77 cells
Sequence of human delta-like ligand 3 (DLL3) on SHP77 cells (human) (Q9NYJ7 27-618, stated change not applied): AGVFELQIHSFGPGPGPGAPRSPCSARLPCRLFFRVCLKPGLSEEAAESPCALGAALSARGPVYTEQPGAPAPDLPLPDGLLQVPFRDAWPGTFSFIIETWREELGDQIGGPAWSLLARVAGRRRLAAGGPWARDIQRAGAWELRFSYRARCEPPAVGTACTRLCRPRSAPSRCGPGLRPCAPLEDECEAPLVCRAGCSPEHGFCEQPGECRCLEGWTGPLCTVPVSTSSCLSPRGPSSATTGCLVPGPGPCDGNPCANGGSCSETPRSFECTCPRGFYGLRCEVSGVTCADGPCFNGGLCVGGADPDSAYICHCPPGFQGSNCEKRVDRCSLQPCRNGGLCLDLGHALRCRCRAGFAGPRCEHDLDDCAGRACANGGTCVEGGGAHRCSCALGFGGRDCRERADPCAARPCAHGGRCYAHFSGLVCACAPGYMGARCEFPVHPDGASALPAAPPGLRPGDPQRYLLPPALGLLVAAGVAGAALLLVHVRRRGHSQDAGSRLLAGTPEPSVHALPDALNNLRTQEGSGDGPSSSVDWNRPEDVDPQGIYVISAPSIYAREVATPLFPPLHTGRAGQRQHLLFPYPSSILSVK

[18] = target: DLL3 endogenously expressed on NCI-H82 cells (UniProt Q9NYJ7); assay: FACS on NCI-H82 cells; antibody 0.00128 nM
[19] = target: mouse DLL3 on CHO-K1-mDLL3 cells (mouse) (UniProt O88516); assay: FACS, CHO-K1-mDLL3 cells, 0.0064 nM antibody
[20] = target: human DLL1 protein (Acro, Cat. No. DL1-H52H8) (human) (UniProt O00548); assay: ELISA, coated hDLL1; maximum over 0.1, 1, 10, 100 nM antibody
Sequence of human DLL1 protein (Acro, Cat. No. DL1-H52H8) (human) (O00548 18-540 limits assumed): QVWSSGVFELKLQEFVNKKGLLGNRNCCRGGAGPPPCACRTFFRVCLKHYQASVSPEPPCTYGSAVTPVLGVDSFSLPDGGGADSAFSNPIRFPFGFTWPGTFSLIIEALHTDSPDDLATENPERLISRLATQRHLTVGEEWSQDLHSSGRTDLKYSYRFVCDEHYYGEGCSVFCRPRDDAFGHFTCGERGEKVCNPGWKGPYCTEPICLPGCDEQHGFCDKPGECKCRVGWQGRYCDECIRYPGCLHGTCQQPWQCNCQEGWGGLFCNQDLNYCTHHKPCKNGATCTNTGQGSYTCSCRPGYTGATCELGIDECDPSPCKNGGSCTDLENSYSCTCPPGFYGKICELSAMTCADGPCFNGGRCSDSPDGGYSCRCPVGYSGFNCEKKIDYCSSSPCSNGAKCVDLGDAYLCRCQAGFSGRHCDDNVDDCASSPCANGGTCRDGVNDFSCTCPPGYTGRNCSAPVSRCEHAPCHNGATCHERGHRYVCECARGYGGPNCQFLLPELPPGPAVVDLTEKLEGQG

[21] = target: DLL3 endogenously expressed on NCI-H82 cells (UniProt Q9NYJ7); assay: FACS on NCI-H82 cells; antibody 20 nM
[22] = target: monkey DLL3 on CHO-K1-cyno DLL3 cells (cynomolgus monkey); assay: FACS, CHO-K1-cyno DLL3 cells, 4 nM antibody
[23] = target: human DLL3 protein expressed on CHO-K1 recombinant cells (human DLL3 extracellular segment fused to EpCAM transmembrane and intracellular regions) (human) (UniProt Q9NYJ7); assay: FACS, CHO-K1 hDLL3 cells, 0.00128 nM antibody
[24] = target: DLL3 endogenously expressed on NCI-H82 cells (UniProt Q9NYJ7); assay: FACS on NCI-H82 cells; antibody 0.8 nM
[25] = target: mouse DLL3 on CHO-K1-mDLL3 cells (mouse) (UniProt O88516); assay: FACS, CHO-K1-mDLL3 cells, 0.8 nM antibody
[26] = target: DLL3 endogenously expressed on NCI-H82 cells (UniProt Q9NYJ7); assay: FACS on NCI-H82 cells; antibody 4 nM
[27] = target: monkey DLL3 on CHO-K1-cyno DLL3 cells (cynomolgus monkey); assay: FACS, CHO-K1-cyno DLL3 cells, 0.0064 nM antibody
[28] = target: human DLL3 protein expressed on CHO-K1 recombinant cells (human DLL3 extracellular segment fused to EpCAM transmembrane and intracellular regions) (human) (UniProt Q9NYJ7); assay: FACS, CHO-K1 hDLL3 cells, 4 nM antibody
[29] = target: DLL3 endogenously expressed on NCI-H82 cells (UniProt Q9NYJ7); assay: FACS on NCI-H82 cells; antibody 0.032 nM
[30] = target: human DLL3 protein expressed on CHO-K1 recombinant cells (human DLL3 extracellular segment fused to EpCAM transmembrane and intracellular regions) (human) (UniProt Q9NYJ7); assay: FACS, CHO-K1 hDLL3 cells, 0.16 nM antibody
[31] = target: human DLL3 protein expressed on CHO-K1 recombinant cells (human DLL3 extracellular segment fused to EpCAM transmembrane and intracellular regions) (human) (UniProt Q9NYJ7); assay: FACS, CHO-K1 hDLL3 cells, 0.0064 nM antibody
[32] = target: mouse DLL3 on CHO-K1-mDLL3 cells (mouse) (UniProt O88516); assay: FACS, CHO-K1-mDLL3 cells, 0.16 nM antibody
[33] = target: monkey DLL3 on CHO-K1-cyno DLL3 cells (cynomolgus monkey); assay: FACS, CHO-K1-cyno DLL3 cells, 20 nM antibody
[34] = target: mouse DLL3 on CHO-K1-mDLL3 cells (mouse) (UniProt O88516); assay: FACS, CHO-K1-mDLL3 cells, 20 nM antibody
[35] = target: DLL3 endogenously expressed on NCI-H82 cells (UniProt Q9NYJ7); assay: FACS on NCI-H82 cells; antibody 0.0064 nM

Sequence of monkey DLL3 on CHO-K1-cyno DLL3 cells (cynomolgus monkey) (chain, as listed by the source limits assumed): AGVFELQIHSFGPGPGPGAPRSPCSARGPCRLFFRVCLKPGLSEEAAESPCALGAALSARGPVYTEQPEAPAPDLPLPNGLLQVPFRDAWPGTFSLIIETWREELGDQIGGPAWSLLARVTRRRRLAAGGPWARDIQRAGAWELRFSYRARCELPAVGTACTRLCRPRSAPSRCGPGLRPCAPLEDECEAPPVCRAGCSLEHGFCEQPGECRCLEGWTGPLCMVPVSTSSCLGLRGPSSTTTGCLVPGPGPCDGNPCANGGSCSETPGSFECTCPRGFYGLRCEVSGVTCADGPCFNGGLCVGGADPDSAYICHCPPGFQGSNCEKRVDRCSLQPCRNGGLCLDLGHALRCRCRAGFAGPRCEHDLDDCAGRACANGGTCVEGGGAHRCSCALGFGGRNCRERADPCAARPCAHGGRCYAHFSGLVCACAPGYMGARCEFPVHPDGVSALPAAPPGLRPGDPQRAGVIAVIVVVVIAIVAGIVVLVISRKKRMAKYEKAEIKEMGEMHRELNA
Sequence of human DLL3 protein expressed on CHO-K1 recombinant cells (human DLL3 extracellular segment fused to EpCAM transmembrane and intracellular regions) (human) (Q9NYJ7 other isoform, or with tags, fused parts or gaps limits assumed): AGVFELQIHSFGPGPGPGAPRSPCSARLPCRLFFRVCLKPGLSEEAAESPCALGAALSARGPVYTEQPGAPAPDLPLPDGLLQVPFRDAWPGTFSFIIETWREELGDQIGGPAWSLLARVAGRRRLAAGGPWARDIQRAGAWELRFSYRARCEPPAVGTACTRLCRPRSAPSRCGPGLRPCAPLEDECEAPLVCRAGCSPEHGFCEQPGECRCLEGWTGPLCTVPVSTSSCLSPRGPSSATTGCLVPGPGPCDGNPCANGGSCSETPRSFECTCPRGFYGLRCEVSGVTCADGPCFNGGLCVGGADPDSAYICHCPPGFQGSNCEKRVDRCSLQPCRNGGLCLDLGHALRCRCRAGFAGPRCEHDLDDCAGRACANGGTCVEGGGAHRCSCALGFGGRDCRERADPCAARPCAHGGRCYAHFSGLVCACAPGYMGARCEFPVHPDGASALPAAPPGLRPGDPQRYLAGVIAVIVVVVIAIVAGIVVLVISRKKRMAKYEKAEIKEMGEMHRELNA
Sequence of DLL3 endogenously expressed on NCI-H82 cells (Q9NYJ7 27-618): as the sequence (Q9NYJ7 27-618, stated change not applied) above

B1: Hab015VL5VH1b-hFc (scFv, part only; not given: VL-VH linker and human IgG1 Fc, V domains shown, not shown: another chain or arm of the molecule; a dimerising Fc or GST; small tags and cut ends)
VL: NIQMTQSPSSLSASVGDRVTITCKASENVGTYVSWYQQKPGKSPKLLIYGASNRYTGVPSRFSGSGSGTDFTLTISSLQPEDFATYYCGQFYSFPSTFGGGTKVEIK
VH: EVQLVESGGGLVKPGGSLRLSCAASGITFSNFWMNWVRQAPGKGLEWVGQIRLKSEDYATHYAESVKGRFTISREDSKNTVYLQMNSLKTEDTAVYYCTTGYYFDYWGQGTTVTVSS
- MFI [1]: 140 MFI
- MFI [2]: 341 MFI
- MFI [3]: 426
- MFI [4]: 4140 MFI
- MFI [5]: 11800 MFI
- MFI [6]: 7310 MFI
- MFI [7]: 1160 MFI
- MFI [8]: 1140 MFI
- MFI [9]: 122 MFI
- MFI [10]: 410 MFI
- MFI [11]: 4100 MFI
- Emax of OD450 nm binding value [12]: 0.67 OD450 nm
- MFI [13]: 186 MFI
- MFI [14]: 11500 MFI
- MFI [15]: 983
- MFI [16]: 1460 MFI
- MFI at 0.00128 nM [17]: 102 MFI
- MFI at 0.0064 nM [17]: 118 MFI
- MFI at 0.032 nM [17]: 178 MFI
- MFI at 0.16 nM [17]: 356 MFI
- MFI at 0.8 nM [17]: 632 MFI
- MFI at 4 nM [17]: 714 MFI
- MFI at 20 nM [17]: 844 MFI
- MFI at 100 nM [17]: 1030 MFI
- MFI [18]: 121
- MFI [19]: 131 MFI
- Emax of OD450 nm binding value [20]: 0.43 OD450 nm
- MFI [21]: 838
- MFI [22]: 6500 MFI
- MFI [23]: 137 MFI
- MFI [24]: 711
- MFI [25]: 884 MFI
- MFI [26]: 745
- MFI [27]: 195 MFI
- MFI [28]: 10300 MFI
- MFI [29]: 212
- MFI [30]: 980 MFI
- MFI [31]: 174 MFI
- MFI [32]: 361 MFI
- MFI [33]: 6970 MFI
- MFI [34]: 1350 MFI
- MFI [35]: 139

B2: Hab015VL5VH5a-hFc (scFv, part only; not given: scFv linker and human IgG1 Fc, V domains shown, not shown: another chain or arm of the molecule; a dimerising Fc or GST; small tags and cut ends)
VL: NIQMTQSPSSLSASVGDRVTITCKASENVGTYVSWYQQKPGKSPKLLIYGASNRYTGVPSRFSGSGSGTDFTLTISSLQPEDFATYYCGQFYSFPSTFGGGTKVEIK
VH: EVQLVESGGGLVKPGGSLRLSCVASGITFSNFWMNWVRQAPGKGLEWVGQIRLKSDDYATHYAESVKGRFTISREDSKNTVYLQMNSLKTEDTAVYYCTTGYYFDYWGQGTTVTVSS
- MFI [1]: 142 MFI
- MFI [2]: 339 MFI
- MFI [3]: 473
- MFI [4]: 4590 MFI
- MFI [5]: 12000 MFI
- MFI [6]: 7380 MFI
- MFI [7]: 1240 MFI
- MFI [8]: 1330 MFI
- MFI [9]: 122 MFI
- MFI [10]: 428 MFI
- MFI [11]: 4640 MFI
- Emax of OD450 nm binding value [12]: 0.64 OD450 nm
- MFI [13]: 199 MFI
- MFI [14]: 12000 MFI
- MFI [15]: 1110
- MFI [16]: 1580 MFI
- MFI at 0.00128 nM [17]: 106 MFI
- MFI at 0.0064 nM [17]: 122 MFI
- MFI at 0.032 nM [17]: 189 MFI
- MFI at 0.16 nM [17]: 405 MFI
- MFI at 0.8 nM [17]: 666 MFI
- MFI at 4 nM [17]: 785 MFI
- MFI at 20 nM [17]: 876 MFI
- MFI at 100 nM [17]: 1060 MFI
- MFI [18]: 122
- MFI [19]: 139 MFI
- Emax of OD450 nm binding value [20]: 0.47 OD450 nm
- MFI [21]: 929
- MFI [22]: 6610 MFI
- MFI [23]: 134 MFI
- MFI [24]: 779
- MFI [25]: 953 MFI
- MFI [26]: 848
- MFI [27]: 194 MFI
- MFI [28]: 10700 MFI
- MFI [29]: 230
- MFI [30]: 1030 MFI
- MFI [31]: 166 MFI
- MFI [32]: 424 MFI
- MFI [33]: 7090 MFI
- MFI [34]: 1440 MFI
- MFI [35]: 139

— EP4786492A1
